In general, Kd refers to the concentration at which binding is half-saturated.

In test [1] the target is T1, biotin-labeled human CD137 fused to human IgG1 Fc fragment (human, biotin-labeled).
T1 construct: Immobilised on streptavidin beads through biotin; also called human CD137-Fc; biotin-human CD137-Fc
Put plainly: competitive bead ELISA, IgG on biotin-human CD137-Fc, competitor free CD3 epsilon peptide 125 pmol/well.

Test [2] has as its target T1, biotin-labeled human CD137 fused to …. Description: bead ELISA, IgG on biotin-human CD137-Fc on streptavidin beads, no free CD3e. Background: In an ELISA, binding on a coated surface is turned into a signal by an enzyme label.
For test [3] the target is unchanged. Description: competitive bead ELISA, decrease of signal on biotin-human CD137-Fc with 125 pmol/well free CD3 epsilon peptide against 0.
Test [4] has as its target T2, biotinylated CD3 epsilon epitope peptide (UniProt P07766 22-48, biotinylated).
T2 chain: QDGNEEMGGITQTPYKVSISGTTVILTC
Description: SPR (Biacore); biotinylated CD3 epsilon epitope peptide on chip via streptavidin, antibody as analyte. A general note: In SPR one partner is held on a chip, and binding of the other changes the refractive index at the surface.
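Throughout, for ELISA signal, free CD3e 125 pmol/well: bead ELISA on streptavidin-coated magnetic beads, with the signal read as well fluorescence 2 min after APS-5 addition.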

B1: dBBDu202 (antibody, human IgG1, V domains shown)
VH: QVQLVESGGGLVQPGRSLRLSCAASGFTFSNAWMHWVRQAPGKGLEWVAQIKDKGNAYAAYYAPSVKGRFTISRDDSKNSIYLQMNSLKTEDTAVYYCHYVHYSAASTVLPAFGVDAWGQGTTVTVSS
VL: DIVMTQSPLSLPVTPGEPASISCRSSQSLVHSNRNTYLHWYQQKPGQAPRLLIYKVSNRFSGVPDRFSGSGSGTDFTLKISRVEAEDVGVYYCGQGTQVPYTFGQGTKLEIK
notes: IgG: VH joined to human IgG1 CH1-Fc, GLS3000 as light chain
As for B1, the “ELISA signal, free CD3e 125 pmol/well” value in test [1] amounted to 1930. Besides, in test [2], the “ELISA signal, free CD3e 0 pmol/well” value was 12100. The molecule further came in with a Signal decrease in test [3] of 84%.

B2: dBBDu125 (antibody, human IgG1, V domains shown)
VH: QVQLVESGGGLVQPGRSLRLSCAASGFTFSIAWMHWVRQAPGKGLEWVAQIKDKVNGYTAYYAESVKGRFTISRDDSKNSIYLQMNSLKTEDTAVYYCRYVHYAAYYDVLGYGGVDAWGQGTTVTVSS
VL: DIVMTQSPLSLPVTPGEPASISCRSSQSLVHSNRNTYLHWYQQKPGQAPRLLIYKVSNRFSGVPDRFSGSGSGTDFTLKISRVEAEDVGVYYCGQGTQVPYTFGQGTKLEIK
notes: IgG: VH joined to human IgG1 CH1-Fc, GLS3000 as light chain; also called DXDU01_3_#019; DXDU01_3 #019
As to B2, in test [1], the “ELISA signal, free CD3e 125 pmol/well” value was found to be 2060. For the same molecule, the “ELISA signal, free CD3e 0 pmol/well” value in test [2] came out at 61400. For the same molecule, the Signal decrease in test [3] was 96.7%.

B3: dBBDu217 (antibody, human IgG1, V domains shown)
VH: QVQLVESGGGLVQPGRSLRLSCAASGFTFSNAWMHWVRQAPGKGLEWVAQIKDRQQGYATYYAPSVKGRFTISRDDSKNSIYLQMNSLKTEDTAVYYCRFVHYHLAGYGYYGVDAWGQGTTVTVSS
VL: DIVMTQSPLSLPVTPGEPASISCRSSQSLVHSNRNTYLHWYQQKPGQAPRLLIYKVSNRFSGVPDRFSGSGSGTDFTLKISRVEAEDVGVYYCGQGTQVPYTFGQGTKLEIK
notes: as for B1
B3: the “ELISA signal, free CD3e 125 pmol/well” value in test [1] was determined as 2420. Further, the “ELISA signal, free CD3e 0 pmol/well” value in test [2] is 19100. In addition, in test [3], the Signal decrease worked out at 87.3%.

B4: dBBDu174 (antibody, human IgG1, V domains shown)
VH: QVQLVESGGGLVQPGRSLRLSCAASGFTFSSAWMHWVRQAPGKGLEWVAQIKDRASAYNAYYAESVKGRFTISRDDSKNSIYLQMNSLKTEDTAVYYCRYVHYPSYVSFLPYYGVDAWGQGTTVTVSS
VL: DIVMTQSPLSLPVTPGEPASISCRSSQSLVHSNRNTYLHWYQQKPGQAPRLLIYKVSNRFSGVPDRFSGSGSGTDFTLKISRVEAEDVGVYYCGQGTQVPYTFGQGTKLEIK
notes: as for B1
In the case of B4, the “ELISA signal, free CD3e 125 pmol/well” value in test [1] turned out to be 1880. The “ELISA signal, free CD3e 0 pmol/well” value in test [2] turned out to be 4800. In test [3], this molecule displayed a Signal decrease of 60.8%.

B5: dBBDu222 (antibody, human IgG1, V domains shown)
VH: QVQLVESGGGLVQPGRSLRLSCAASGFTISSAWMHWVRQAPGKGLEWVAQIKDRANGYAAYYAPSVKGRFTISRDDSKNSIYLQMNSLKTEDTAVYYCRYVHYATAYDGFYGFGVDAWGQGTTVTVSS
VL: DIVMTQSPLSLPVTPGEPASISCRSSQSLVHSNRNTYLHWYQQKPGQAPRLLIYKVSNRFSGVPDRFSGSGSGTDFTLKISRVEAEDVGVYYCGQGTQVPYTFGQGTKLEIK
notes: as for B1
For B5, the “ELISA signal, free CD3e 125 pmol/well” value in test [1] came out at 3240. In test [2], the “ELISA signal, free CD3e 0 pmol/well” value was 7190. The molecule further displayed a Signal decrease in test [3] of 55%.

B6: dBBDu205 (antibody, human IgG1, V domains shown)
VH: QVQLVESGGGLVQPGRSLRLSCAASGFTFSNAWMHWVRQAPGKGLEWVAQIKDRSQLYAAYYAPSVKGRFTISRDDSKNSIYLQMNSLKTEDTAVYYCHYVHYASASTVLPAFGVDAWGQGTTVTVSS
VL: DIVMTQSPLSLPVTPGEPASISCRSSQSLVHSNRNTYLHWYQQKPGQAPRLLIYKVSNRFSGVPDRFSGSGSGTDFTLKISRVEAEDVGVYYCGQGTQVPYTFGQGTKLEIK
notes: as for B1
Take B6: the “ELISA signal, free CD3e 125 pmol/well” value in test [1] was 2190. In addition, in test [2], the “ELISA signal, free CD3e 0 pmol/well” value was 45200. Besides, the Signal decrease in test [3] worked out at 95.2%.

B7: dBBDu204 (antibody, human IgG1, V domains shown)
VH: QVQLVESGGGLVQPGRSLRLSCAASGFTFSNAWMHWVRQAPGKGLEWVAQIKDRSNNYATYYAESVKGRFTISRDDSKNSIYLQMNSLKTEDTAVYYCHYVHYASASTVLPAFGVDAWGQGTTVTVSS
VL: DIVMTQSPLSLPVTPGEPASISCRSSQSLVHSNRNTYLHWYQQKPGQAPRLLIYKVSNRFSGVPDRFSGSGSGTDFTLKISRVEAEDVGVYYCGQGTQVPYTFGQGTKLEIK
notes: as for B1
For B7, the “ELISA signal, free CD3e 125 pmol/well” value in test [1] was found to be 1880. The “ELISA signal, free CD3e 0 pmol/well” value in test [2] came out at 43700. In test [3], the Signal decrease was found to be 95.7%.

B8: NNS6f17 (CE115HA340 with WGEGVV inserted between Kabat positions 99 and 100), one-arm antibody (antibody)
chain 1: QVQLVESGGGLVQPGRSLRLSCAASGFTFSNAWMHWVRQAPGKGLEWVAQIKDKSNNYATYYAESVKGRFTISRDDSKNSIYLQMNSLKTEDTAVYYCRYVHYAAWGEGVVYYGVDAWGQGTTVTVSSASTKGPSVFPLAPSSKSTSGGTAALGCLVKDYFPEPVTVSWNSGALTSGVHTFPAVLQSSGLYSLSSVVTVPSSSLGTQTYICNVNHKPSNTKVDKKVEPKSCDKTHTCPPCPAPEAAGGPSVFLFPPKPKDTLMISRTPEVTCVVVDVSHEDPEVKFNWYVDGVEVHNAKTKPREEQYASTYRVVSVLTVLHQDWLNGKEYKCKVSNKALPAPIEKTISKAKGQPREPQVYTLPPSRCELTKNQVSLSCAVKGFYPSDIAVEWESNGQPENNYKTTPPVLDSDGSFFLVSKLTVDKSRWQQGNVFSCSVMHEALHNHYTQKSLSLSPDYKDDDDK
chain 2: EPKSSDKTHTCPPCPAPELLGGPSVFLFPPKPKDTLMISRTPEVTCVVVDVSHEDPEVKFNWYVDGVEVHNAKTKPREEQYNSTYRVVSVLTVLHQDWLNGKEYKCKVSNKALPAPIEKTISKAKGQPREPQVCTLPPSRDELTKNQVSLWCLVKGFYPSDIAVEWESNGQPENNYKTTPPVLDSDGSFFLYSKLTVDKSRWQQGNVFSCSVMHEALHNRYTQKSLSLSP
chain 3: DIVMTQSPLSLPVTPGEPASISCRSSQSLVHSNRNTYLHWYQQKPGQAPRLLIYKVSNRFSGVPDRFSGSGSGTDFTLKISRVEAEDVGVYYCGQGTQVPYTFGQGTKLEIKRTVAAPSVFIFPPSDEQLKSGTASVVCLLNNFYPREAKVQWKVDNALQSGNSQESVTEQDSKDSTYSLSSTLTLSKADYEKHKVYACEVTHQGLSSPVTKSFNRGEC
On to B8, for which the Kd in test [4] is 74 nM.

B9: NNS6f27 (CE115HA340 with VWGSVW inserted between Kabat positions 99 and 100), one-arm antibody (antibody)
chain 1: QVQLVESGGGLVQPGRSLRLSCAASGFTFSNAWMHWVRQAPGKGLEWVAQIKDKSNNYATYYAESVKGRFTISRDDSKNSIYLQMNSLKTEDTAVYYCRYVHYAAVWGSVWYYGVDAWGQGTTVTVSSASTKGPSVFPLAPSSKSTSGGTAALGCLVKDYFPEPVTVSWNSGALTSGVHTFPAVLQSSGLYSLSSVVTVPSSSLGTQTYICNVNHKPSNTKVDKKVEPKSCDKTHTCPPCPAPEAAGGPSVFLFPPKPKDTLMISRTPEVTCVVVDVSHEDPEVKFNWYVDGVEVHNAKTKPREEQYASTYRVVSVLTVLHQDWLNGKEYKCKVSNKALPAPIEKTISKAKGQPREPQVYTLPPSRCELTKNQVSLSCAVKGFYPSDIAVEWESNGQPENNYKTTPPVLDSDGSFFLVSKLTVDKSRWQQGNVFSCSVMHEALHNHYTQKSLSLSPDYKDDDDK
chain 2: EPKSSDKTHTCPPCPAPELLGGPSVFLFPPKPKDTLMISRTPEVTCVVVDVSHEDPEVKFNWYVDGVEVHNAKTKPREEQYNSTYRVVSVLTVLHQDWLNGKEYKCKVSNKALPAPIEKTISKAKGQPREPQVCTLPPSRDELTKNQVSLWCLVKGFYPSDIAVEWESNGQPENNYKTTPPVLDSDGSFFLYSKLTVDKSRWQQGNVFSCSVMHEALHNRYTQKSLSLSP
chain 3: DIVMTQSPLSLPVTPGEPASISCRSSQSLVHSNRNTYLHWYQQKPGQAPRLLIYKVSNRFSGVPDRFSGSGSGTDFTLKISRVEAEDVGVYYCGQGTQVPYTFGQGTKLEIKRTVAAPSVFIFPPSDEQLKSGTASVVCLLNNFYPREAKVQWKVDNALQSGNSQESVTEQDSKDSTYSLSSTLTLSKADYEKHKVYACEVTHQGLSSPVTKSFNRGEC
Molecule B9 registered a Kd in test [4] of 38 nM.

B10: anti-human CD137 antibody described in WO2005/035584A1 (abbreviated as B) (antibody, V domains shown)
VH: QVQLQQWGAGLLKPSETLSLTCAVYGGSFSGYYWSWIRQSPEKGLEWIGEINHGGYVTYNPSLESRVTISVDTSKNQFSLKLSSVTAADTAVYYCARDYGPGNYDWYFDLWGRGTLVTVSS
VL: EIVLTQSPATLSLSPGERATLSCRASQSVSSYLAWYQQKPGQAPRLLIYDASNRATGIPARFSGSGSGTDFTLTISSLEPEDFAVYYCQQRSNWPPALTFGGGTKVEIK
notes: also called control anti-CD137 antibody
Turning to B10, the “ELISA signal, free CD3e 125 pmol/well” value in test [1] turned out to be 98100. Further, the “ELISA signal, free CD3e 0 pmol/well” value in test [2] worked out at 99400. This molecule also registered a Signal decrease in test [3] of 1.26%.

B11: Du115/DUL008 (antibody, V domains shown)
VH: QVQLVESGGGLVQPGRSLRLSCAASGFTFSNAWMHWVRQAPGKGLEWVAQIKDKANSYNTYYAPSVKGRFTISRDDSKNSIYLQMNSLKTEDTAVYYCRYVHYGSSYGFLFAGYGVDAWGQGTTVTVSS
VL: DIVMTQSPLSLPVTPGEPASISCQSSEELLHANRKTYLHWYQQKPGQAPRLLIYKVQNRFSGVPDRFSGSGSGTDFTLKISRVEAEDVGVYYCAQGTATPFTFGQGTKLEIK
notes: Human IgG1 format; also called dBBDu_115 with L008
For B11, in test [1], the “ELISA signal, free CD3e 125 pmol/well” value is 2620. For the same molecule, the “ELISA signal, free CD3e 0 pmol/well” value in test [2] is 86200. The same molecule had a Signal decrease in test [3] of 97%.

These data come from patent publication US20240270846A1 (published 2024).
